Measurements as given in patent US20220372155A1 (LYVGEN BIOPHARMA, published 2022).

Target: T1, human CD40 expressed on CHO cells (human, UniProt P25942 21-277)
T1 construct: whole, on cells; also used for the reporter cells over-expressing human CD40; also called cellular CD40; CHO-CD40 cells
Experiment: FACS, CHO cells

T1 sequence (P25942 21-277): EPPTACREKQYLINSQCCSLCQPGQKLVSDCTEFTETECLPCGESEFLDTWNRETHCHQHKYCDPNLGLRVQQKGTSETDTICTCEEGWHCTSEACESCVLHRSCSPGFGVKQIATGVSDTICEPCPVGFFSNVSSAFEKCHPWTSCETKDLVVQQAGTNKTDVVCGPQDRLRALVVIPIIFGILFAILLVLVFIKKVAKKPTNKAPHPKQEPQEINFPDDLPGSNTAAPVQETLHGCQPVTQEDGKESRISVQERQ

binding result	Binder
binds	Ly401 (bispecific antibody, human IgG1, kappa, Ly311 HC (IgG1 mutated Fc)-TM740 scFv VL-VH + Ly311 LC) heavy: EVQLVESGGGVVQPGRSLRLSCSASGFDFTTYWMSWVRQAPGKGLEWIGEIHPDSSTINYAPSLKDRFTISRDNAKNTLFLQMDSLRPEDTGVYFCASLYFGFPWFAYWGQGTPVTVSSASTKGPSVFPLAPSSKSTSGGTAALGCLVKDYFPEPVTVSWNSGALTSGVHTFPAVLQSSGLYSLSSVVTVPSSSLGTQTYICNVNHKPSNTKVDKKVEPKSCDKTHTCPPCPAPELLGPSVFLFPPKPKDTLMISRTPEVTCVVVDVSHEDPEVKFNWYVDGVEVHNAKTKPREEQYNSTYRVVSVLTVLHQDWLNGKEYKCKVSNKALPAPIEKTISKAKGQPREPQVYTLPPSREEMTKNQVSLTCLVKGFYPSDIAVEWESNGQPENNYKTTPPVLDSDGSFFLYSKLTVDKSRWQQGNVFSCSVMHEALHNHYTQKSLSLSPGGGGGSGGGGSGGGGSGGGGSDIQMTQSPSSLSASVGDRVTITCKASQNIYIYLNWYQQKPGKAPKLLIYNTNNLQTGVPSRFSGSGSGTDFTLTISSLQPEDFATYYCLQHSSRRTFGGGTKVEIKGGGGSGGGGSGGGGSGGGGSQVQLVESGGGLVQPGGSLKLSCATSGFNFNDYFMNWVRQASGKGLEWVGQIRNKNYNYATYYTESLEGRVTISRDDSKNTAYLQMNSLKTEDTAVYYCTSYYYDGFADYFDYWGQGTTVTVSS light: DIQLTQSPSSLSASVGDRVTITCKASQDVGTSVAWYQQKPGKAPKLLIYWTSTRHTGVPSRFSGSGSGTDFTFTISSLQPEDIATYYCQQYSLYRSFGQGTKVEIKRTVAAPSVFIFPPSDEQLKSGTASVVCLLNNFYPREAKVQWKVDNALQSGNSQESVTEQDSKDSTYSLSSTLTLSKADYEKHKVYACEVTHQGLSSPVTKSFNRGEC
binds	Ly402 (bispecific antibody, human IgG1, kappa, Ly311 HC (IgG1 mutated Fc)-TM740 scFv VH-VL + Ly311 LC) heavy: EVQLVESGGGVVQPGRSLRLSCSASGFDFTTYWMSWVRQAPGKGLEWIGEIHPDSSTINYAPSLKDRFTISRDNAKNTLFLQMDSLRPEDTGVYFCASLYFGFPWFAYWGQGTPVTVSSASTKGPSVFPLAPSSKSTSGGTAALGCLVKDYFPEPVTVSWNSGALTSGVHTFPAVLQSSGLYSLSSVVTVPSSSLGTQTYICNVNHKPSNTKVDKKVEPKSCDKTHTCPPCPAPELLGPSVFLFPPKPKDTLMISRTPEVTCVVVDVSHEDPEVKFNWYVDGVEVHNAKTKPREEQYNSTYRVVSVLTVLHQDWLNGKEYKCKVSNKALPAPIEKTISKAKGQPREPQVYTLPPSREEMTKNQVSLTCLVKGFYPSDIAVEWESNGQPENNYKTTPPVLDSDGSFFLYSKLTVDKSRWQQGNVFSCSVMHEALHNHYTQKSLSLSPGGGGGSGGGGSGGGGSGGGGSQVQLVESGGGLVQPGGSLKLSCATSGFNFNDYFMNWVRQASGKGLEWVGQIRNKNYNYATYYTESLEGRVTISRDDSKNTAYLQMNSLKTEDTAVYYCTSYYYDGFADYFDYWGQGTTVTVSSGGGGSGGGGSGGGGSGGGGSDIQMTQSPSSLSASVGDRVTITCKASQNIYIYLNWYQQKPGKAPKLLIYNTNNLQTGVPSRFSGSGSGTDFTLTISSLQPEDFATYYCLQHSSRRTFGGGTKVEIK light: DIQLTQSPSSLSASVGDRVTITCKASQDVGTSVAWYQQKPGKAPKLLIYWTSTRHTGVPSRFSGSGSGTDFTFTISSLQPEDIATYYCQQYSLYRSFGQGTKVEIKRTVAAPSVFIFPPSDEQLKSGTASVVCLLNNFYPREAKVQWKVDNALQSGNSQESVTEQDSKDSTYSLSSTLTLSKADYEKHKVYACEVTHQGLSSPVTKSFNRGEC
binds	Ly405 (bispecific antibody, human IgG1, kappa, Ly312 HC (IgG1 mutated Fc)-TM740 scFv VL-VH + Ly312 LC) heavy: EVQLVESGGGLVQPGGSLRLSCAASGFNIKDTYMHWVRQAPGKGLEWVARIDPANGNSKYADSVKGRFTISADTSKNTAYLQMNSLRAEDTAVYYCAPFGYYVSDYAMAYWGQGTLVTVSSASTKGPSVFPLAPSSKSTSGGTAALGCLVKDYFPEPVTVSWNSGALTSGVHTFPAVLQSSGLYSLSSVVTVPSSSLGTQTYICNVNHKPSNTKVDKKVEPKSCDKTHTCPPCPAPELLGPSVFLFPPKPKDTLMISRTPEVTCVVVDVSHEDPEVKFNWYVDGVEVHNAKTKPREEQYNSTYRVVSVLTVLHQDWLNGKEYKCKVSNKALPAPIEKTISKAKGQPREPQVYTLPPSREEMTKNQVSLTCLVKGFYPSDIAVEWESNGQPENNYKTTPPVLDSDGSFFLYSKLTVDKSRWQQGNVFSCSVMHEALHNHYTQKSLSLSPGGGGGSGGGGSGGGGSGGGGSDIQMTQSPSSLSASVGDRVTITCKASQNIYIYLNWYQQKPGKAPKLLIYNTNNLQTGVPSRFSGSGSGTDFTLTISSLQPEDFATYYCLQHSSRRTFGGGTKVEIKGGGGSGGGGSGGGGSGGGGSQVQLVESGGGLVQPGGSLKLSCATSGFNFNDYFMNWVRQASGKGLEWVGQIRNKNYNYATYYTESLEGRVTISRDDSKNTAYLQMNSLKTEDTAVYYCTSYYYDGFADYFDYWGQGTTVTVSS light: DIQLTQSPSSLSASVGDRVTITCRAGESVDIFGVGFLHWYQQKPGKAPKLLIYRASNLESGVPSRFSGSGSRTDFTLTISSLQPEDFATYYCQQTNEDPYTFGQGTKVEIKRTVAAPSVFIFPPSDEQLKSGTASVVCLLNNFYPREAKVQWKVDNALQSGNSQESVTEQDSKDSTYSLSSTLTLSKADYEKHKVYACEVTHQGLSSPVTKSFNRGEC
binds	Ly406 (bispecific antibody, human IgG1, kappa, Ly312 HC (IgG1 mutated Fc)-TM740 scFv VH-VL + Ly312 LC) heavy: EVQLVESGGGLVQPGGSLRLSCAASGFNIKDTYMHWVRQAPGKGLEWVARIDPANGNSKYADSVKGRFTISADTSKNTAYLQMNSLRAEDTAVYYCAPFGYYVSDYAMAYWGQGTLVTVSSASTKGPSVFPLAPSSKSTSGGTAALGCLVKDYFPEPVTVSWNSGALTSGVHTFPAVLQSSGLYSLSSVVTVPSSSLGTQTYICNVNHKPSNTKVDKKVEPKSCDKTHTCPPCPAPELLGPSVFLFPPKPKDTLMISRTPEVTCVVVDVSHEDPEVKFNWYVDGVEVHNAKTKPREEQYNSTYRVVSVLTVLHQDWLNGKEYKCKVSNKALPAPIEKTISKAKGQPREPQVYTLPPSREEMTKNQVSLTCLVKGFYPSDIAVEWESNGQPENNYKTTPPVLDSDGSFFLYSKLTVDKSRWQQGNVFSCSVMHEALHNHYTQKSLSLSPGGGGGSGGGGSGGGGSGGGGSQVQLVESGGGLVQPGGSLKLSCATSGFNFNDYFMNWVRQASGKGLEWVGQIRNKNYNYATYYTESLEGRVTISRDDSKNTAYLQMNSLKTEDTAVYYCTSYYYDGFADYFDYWGQGTTVTVSSGGGGSGGGGSGGGGSGGGGSDIQMTQSPSSLSASVGDRVTITCKASQNIYIYLNWYQQKPGKAPKLLIYNTNNLQTGVPSRFSGSGSGTDFTLTISSLQPEDFATYYCLQHSSRRTFGGGTKVEIK light: DIQLTQSPSSLSASVGDRVTITCRAGESVDIFGVGFLHWYQQKPGKAPKLLIYRASNLESGVPSRFSGSGSRTDFTLTISSLQPEDFATYYCQQTNEDPYTFGQGTKVEIKRTVAAPSVFIFPPSDEQLKSGTASVVCLLNNFYPREAKVQWKVDNALQSGNSQESVTEQDSKDSTYSLSSTLTLSKADYEKHKVYACEVTHQGLSSPVTKSFNRGEC
binds	Ly403 (bispecific antibody, human IgG1, kappa, Ly311 HC (IgG1 mutated Fc) + Ly311 LC-TM740 scFv VL-VH) heavy: EVQLVESGGGVVQPGRSLRLSCSASGFDFTTYWMSWVRQAPGKGLEWIGEIHPDSSTINYAPSLKDRFTISRDNAKNTLFLQMDSLRPEDTGVYFCASLYFGFPWFAYWGQGTPVTVSSASTKGPSVFPLAPSSKSTSGGTAALGCLVKDYFPEPVTVSWNSGALTSGVHTFPAVLQSSGLYSLSSVVTVPSSSLGTQTYICNVNHKPSNTKVDKKVEPKSCDKTHTCPPCPAPELLGPSVFLFPPKPKDTLMISRTPEVTCVVVDVSHEDPEVKFNWYVDGVEVHNAKTKPREEQYNSTYRVVSVLTVLHQDWLNGKEYKCKVSNKALPAPIEKTISKAKGQPREPQVYTLPPSREEMTKNQVSLTCLVKGFYPSDIAVEWESNGQPENNYKTTPPVLDSDGSFFLYSKLTVDKSRWQQGNVFSCSVMHEALHNHYTQKSLSLSPGK light: DIQLTQSPSSLSASVGDRVTITCKASQDVGTSVAWYQQKPGKAPKLLIYWTSTRHTGVPSRFSGSGSGTDFTFTISSLQPEDIATYYCQQYSLYRSFGQGTKVEIKRTVAAPSVFIFPPSDEQLKSGTASVVCLLNNFYPREAKVQWKVDNALQSGNSQESVTEQDSKDSTYSLSSTLTLSKADYEKHKVYACEVTHQGLSSPVTKSFNRGECGGGGSGGGGSGGGGSGGGGSDIQMTQSPSSLSASVGDRVTITCKASQNIYIYLNWYQQKPGKAPKLLIYNTNNLQTGVPSRFSGSGSGTDFTLTISSLQPEDFATYYCLQHSSRRTFGGGTKVEIKGGGGSGGGGSGGGGSGGGGSQVQLVESGGGLVQPGGSLKLSCATSGFNFNDYFMNWVRQASGKGLEWVGQIRNKNYNYATYYTESLEGRVTISRDDSKNTAYLQMNSLKTEDTAVYYCTSYYYDGFADYFDYWGQGTTVTVSS
binds	Ly404 (bispecific antibody, human IgG1, kappa, Ly311 HC (IgG1 mutated Fc) + Ly311 LC-TM740 scFv VH-VL) heavy: EVQLVESGGGVVQPGRSLRLSCSASGFDFTTYWMSWVRQAPGKGLEWIGEIHPDSSTINYAPSLKDRFTISRDNAKNTLFLQMDSLRPEDTGVYFCASLYFGFPWFAYWGQGTPVTVSSASTKGPSVFPLAPSSKSTSGGTAALGCLVKDYFPEPVTVSWNSGALTSGVHTFPAVLQSSGLYSLSSVVTVPSSSLGTQTYICNVNHKPSNTKVDKKVEPKSCDKTHTCPPCPAPELLGPSVFLFPPKPKDTLMISRTPEVTCVVVDVSHEDPEVKFNWYVDGVEVHNAKTKPREEQYNSTYRVVSVLTVLHQDWLNGKEYKCKVSNKALPAPIEKTISKAKGQPREPQVYTLPPSREEMTKNQVSLTCLVKGFYPSDIAVEWESNGQPENNYKTTPPVLDSDGSFFLYSKLTVDKSRWQQGNVFSCSVMHEALHNHYTQKSLSLSPGK light: DIQLTQSPSSLSASVGDRVTITCKASQDVGTSVAWYQQKPGKAPKLLIYWTSTRHTGVPSRFSGSGSGTDFTFTISSLQPEDIATYYCQQYSLYRSFGQGTKVEIKRTVAAPSVFIFPPSDEQLKSGTASVVCLLNNFYPREAKVQWKVDNALQSGNSQESVTEQDSKDSTYSLSSTLTLSKADYEKHKVYACEVTHQGLSSPVTKSFNRGECGGGGSGGGGSGGGGSGGGGSQVQLVESGGGLVQPGGSLKLSCATSGFNFNDYFMNWVRQASGKGLEWVGQIRNKNYNYATYYTESLEGRVTISRDDSKNTAYLQMNSLKTEDTAVYYCTSYYYDGFADYFDYWGQGTTVTVSSGGGGSGGGGSGGGGSGGGGSDIQMTQSPSSLSASVGDRVTITCKASQNIYIYLNWYQQKPGKAPKLLIYNTNNLQTGVPSRFSGSGSGTDFTLTISSLQPEDFATYYCLQHSSRRTFGGGTKVEIK
